Patent US20140087995A1 (published 2014)
Numbered stars: 1 amine (or outer) side, 2 acyl side, 3 side chain; on linkers, the order of the positions; unused ones are H or OH. Bridge positions count the residues as written; N and C are the ends. Side chains are listed from the residue outwards. Ends that are not written are not given here. * marks the point of attachment. C20 diacid = O=C(O)CCCCCCCCCCCCCCCCCCC(=O)*; γGlu = O=C(O)[C@H](CCC(=O)[*:2])N[*:1]; AEEA = NCCOCCOCC(=O)O

Assays:
[1] = target: T1, human calcitonin receptor (human, UniProt P30988 25-474); test: cell-based or functional assay
T1 sequence (looked up): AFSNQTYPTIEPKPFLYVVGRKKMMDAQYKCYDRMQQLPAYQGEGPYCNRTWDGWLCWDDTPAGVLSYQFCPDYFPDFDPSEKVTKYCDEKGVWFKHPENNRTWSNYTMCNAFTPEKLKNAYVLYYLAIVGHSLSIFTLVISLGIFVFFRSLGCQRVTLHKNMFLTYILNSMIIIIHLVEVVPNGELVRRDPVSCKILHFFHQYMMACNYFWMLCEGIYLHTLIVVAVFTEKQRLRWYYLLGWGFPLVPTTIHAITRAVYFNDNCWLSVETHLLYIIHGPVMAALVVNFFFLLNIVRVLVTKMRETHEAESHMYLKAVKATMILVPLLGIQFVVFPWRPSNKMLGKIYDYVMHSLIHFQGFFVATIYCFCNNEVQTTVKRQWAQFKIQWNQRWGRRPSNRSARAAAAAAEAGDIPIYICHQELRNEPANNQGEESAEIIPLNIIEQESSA

[2] = target: T2, human amylin receptor (amylin 3(a) receptor: human calcitonin receptor co-expressed with RAMP-3) (human, UniProt P30988 25-474; O60896 24-148, limits assumed); test: cell-based or functional assay
T2 sequence (looked up) 1: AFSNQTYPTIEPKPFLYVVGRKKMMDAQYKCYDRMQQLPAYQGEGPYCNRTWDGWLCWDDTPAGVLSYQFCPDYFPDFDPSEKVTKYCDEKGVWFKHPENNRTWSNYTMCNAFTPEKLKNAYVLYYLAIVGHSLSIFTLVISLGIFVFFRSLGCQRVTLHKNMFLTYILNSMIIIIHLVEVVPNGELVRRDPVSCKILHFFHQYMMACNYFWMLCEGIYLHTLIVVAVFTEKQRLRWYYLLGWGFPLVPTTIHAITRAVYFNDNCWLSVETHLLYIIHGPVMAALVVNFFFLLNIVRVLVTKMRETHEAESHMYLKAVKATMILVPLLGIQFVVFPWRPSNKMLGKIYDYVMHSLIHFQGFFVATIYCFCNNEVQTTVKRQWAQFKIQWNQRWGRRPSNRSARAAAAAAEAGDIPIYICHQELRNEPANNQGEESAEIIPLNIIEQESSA
T2 sequence (looked up) 2: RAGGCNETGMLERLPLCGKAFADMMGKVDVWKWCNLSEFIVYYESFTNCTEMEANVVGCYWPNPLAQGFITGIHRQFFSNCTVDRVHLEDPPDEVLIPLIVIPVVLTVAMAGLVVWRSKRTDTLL

rat calcitonin receptor [3] = target: T3, rat calcitonin receptor (rat, UniProt P32214 25-516); test: SPA competition with 125I-calcitonin, membranes with rat calcitonin receptor (Assay VIII)
T3 construct: whole, on cells; Used as membranes prepared from the transfected cells; also called rCTR; rCT
T3 sequence (looked up): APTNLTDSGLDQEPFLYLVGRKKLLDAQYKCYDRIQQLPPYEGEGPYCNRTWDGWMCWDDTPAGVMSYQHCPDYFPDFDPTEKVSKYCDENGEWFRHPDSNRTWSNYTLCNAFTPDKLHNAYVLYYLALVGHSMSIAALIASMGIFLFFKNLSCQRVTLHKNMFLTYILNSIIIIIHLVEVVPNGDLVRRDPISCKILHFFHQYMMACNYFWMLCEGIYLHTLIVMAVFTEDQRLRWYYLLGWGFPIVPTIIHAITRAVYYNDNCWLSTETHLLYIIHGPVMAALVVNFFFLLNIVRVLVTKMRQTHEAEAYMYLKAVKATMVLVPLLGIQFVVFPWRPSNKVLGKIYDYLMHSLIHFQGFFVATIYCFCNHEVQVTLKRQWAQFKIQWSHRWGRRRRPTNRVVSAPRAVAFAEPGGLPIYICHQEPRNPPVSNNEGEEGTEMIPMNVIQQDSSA

[4] = target: T4, human calcitonin receptor (human, UniProt P30988 25-474); test: ratio of binding IC50 at human calcitonin receptor to IC50 at human amylin receptor (reference)
T4 construct: whole, on cells; Used as membranes prepared from the transfected cells; also called hCTR; hCT
T4 sequence (looked up): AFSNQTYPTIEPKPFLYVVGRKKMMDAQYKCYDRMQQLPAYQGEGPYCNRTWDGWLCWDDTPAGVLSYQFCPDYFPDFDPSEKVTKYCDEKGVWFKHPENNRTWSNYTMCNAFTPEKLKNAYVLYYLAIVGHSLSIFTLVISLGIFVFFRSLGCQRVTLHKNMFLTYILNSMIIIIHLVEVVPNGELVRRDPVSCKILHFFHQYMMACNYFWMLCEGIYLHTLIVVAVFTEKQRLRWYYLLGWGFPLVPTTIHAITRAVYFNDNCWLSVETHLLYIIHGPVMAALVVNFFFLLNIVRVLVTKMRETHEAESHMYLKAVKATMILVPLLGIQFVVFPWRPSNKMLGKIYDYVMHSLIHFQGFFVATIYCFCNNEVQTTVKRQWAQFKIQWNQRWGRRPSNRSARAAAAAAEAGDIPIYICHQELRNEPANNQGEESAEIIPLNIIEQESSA
Procedure, shortened: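 Competition binding by SPA uses membrane preparations (35 ng/μL final) in pH 7.4 Hepes buffer with 1 mM CaCl2 and 5 mM MgCl₂. Incubation lasts 120 min at 25° C, and IC₅₀ comes from one-site fitting.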

rat calcitonin receptor [5] = target: T3, rat calcitonin receptor; test: ratio of binding IC50 at rat calcitonin receptor to IC50 at rat amylin receptor (reference)

Binder | Ratio hCT/hAmylin funct. (hCTR EC50 against hAmylin-R EC50) [1] | hCTR funct. EC50 [1] [nM] | hAmylin-R funct. EC50 [2] [nM] | IC50 (rat calcitonin receptor [3]) [nM] | Ratio hCT/hAmylin binding [4] | Ratio rCT/rAmylin binding (rat calcitonin receptor [5])
K([AEEA-γGlu-C20 diacid])CNTATCATQRLANFLRHSSPNFGAIPSSTNVGSNTY-NH2 (disulfide 2-7; N-terminus assumed; SMILES CC[C@H](C)[C@H](NC(=O)[C@H](C)NC(=O)CNC(=O)[C@H](Cc1ccccc1)NC(=O)[C@H](CC(N)=O)NC(=O)[C@@H]1CCCN1C(=O)[C@H](CO)NC(=O)[C@H](CO)NC(=O)[C@H](Cc1c[nH]cn1)NC(=O)[C@H](CCCNC(=N)N)NC(=O)[C@H](CC(C)C)NC(=O)[C@H](Cc1ccccc1)NC(=O)[C@H](CC(N)=O)NC(=O)[C@H](C)NC(=O)[C@H](CC(C)C)NC(=O)[C@H](CCCNC(=N)N)NC(=O)[C@H](CCC(N)=O)NC(=O)[C@@H](NC(=O)[C@H](C)NC(=O)[C@@H]1CSSC[C@H](NC(=O)[C@@H](N)CCCCNC(=O)COCCOCCNC(=O)CC[C@H](NC(=O)CCCCCCCCCCCCCCCCCCC(=O)O)C(=O)O)C(=O)N[C@@H](CC(N)=O)C(=O)N[C@@H]([C@@H](C)O)C(=O)N[C@@H](C)C(=O)N[C@@H]([C@@H](C)O)C(=O)N1)[C@@H](C)O)C(=O)N1CCC[C@H]1C(=O)N[C@@H](CO)C(=O)N[C@@H](CO)C(=O)N[C@H](C(=O)N[C@@H](CC(N)=O)C(=O)N[C@H](C(=O)NCC(=O)N[C@@H](CO)C(=O)N[C@@H](CC(N)=O)C(=O)N[C@H](C(=O)N[C@@H](Cc1ccc(O)cc1)C(N)=O)[C@@H](C)O)C(C)C)[C@@H](C)O, also called compound 41) | 16.7 | 4.35 | 0.26 |  |  | 
K([AEEA-γGlu-C20 diacid])CNTATCATQRLAAFLRHSSPNFGAIPSSTPVGSNTY-NH2 (disulfide 2-7; N-terminus assumed; SMILES CC[C@H](C)[C@H](NC(=O)[C@H](C)NC(=O)CNC(=O)[C@H](Cc1ccccc1)NC(=O)[C@H](CC(N)=O)NC(=O)[C@@H]1CCCN1C(=O)[C@H](CO)NC(=O)[C@H](CO)NC(=O)[C@H](Cc1c[nH]cn1)NC(=O)[C@H](CCCNC(=N)N)NC(=O)[C@H](CC(C)C)NC(=O)[C@H](Cc1ccccc1)NC(=O)[C@H](C)NC(=O)[C@H](C)NC(=O)[C@H](CC(C)C)NC(=O)[C@H](CCCNC(=N)N)NC(=O)[C@H](CCC(N)=O)NC(=O)[C@@H](NC(=O)[C@H](C)NC(=O)[C@@H]1CSSC[C@H](NC(=O)[C@@H](N)CCCCNC(=O)COCCOCCNC(=O)CC[C@H](NC(=O)CCCCCCCCCCCCCCCCCCC(=O)O)C(=O)O)C(=O)N[C@@H](CC(N)=O)C(=O)N[C@@H]([C@@H](C)O)C(=O)N[C@@H](C)C(=O)N[C@@H]([C@@H](C)O)C(=O)N1)[C@@H](C)O)C(=O)N1CCC[C@H]1C(=O)N[C@@H](CO)C(=O)N[C@@H](CO)C(=O)N[C@H](C(=O)N1CCC[C@H]1C(=O)N[C@H](C(=O)NCC(=O)N[C@@H](CO)C(=O)N[C@@H](CC(N)=O)C(=O)N[C@H](C(=O)N[C@@H](Cc1ccc(O)cc1)C(N)=O)[C@@H](C)O)C(C)C)[C@@H](C)O, also called compound 72) | 44.9 | 4.76 | 0.106 |  |  | 
KCNTATCATQRLANFLRHSSPNFGAIPSSTNVGHNTY (alpha amino group of the N-terminal residue (Lys1) acylated with C20 diacid-gGlu; disulfide bridge Cys2-Cys7; C-terminal amide, also called compound 40) [N^α1-[(4S)-4-carboxy-4-(19-carboxynonadecanoylamino)butanoyl]-[Arg17,Pro21,Pro27,His34]-h-amylin] | 16.4 |  | 0.164 |  |  | 
KCNTATCATQRLANFLRHSSPNFGAIPSSTNVGRNTY (alpha amino group of the N-terminal residue (Lys1) acylated with C20 diacid-gGlu; disulfide bridge Cys2-Cys7; C-terminal amide, also called compound 39) [N^α1-[(4S)-4-carboxy-4-(19-carboxynonadecanoylamino)butanoyl]-[Arg17,Pro21,Pro27,Arg34]-h-amylin] | 11.6 | 2.52 | 0.217 |  |  | 
K([AEEA-γGlu-C20 diacid])CNTATCATQRLARFLRHSSPNFGAIPSSTPVGSNTY-NH2 (disulfide 2-7; N-terminus assumed; SMILES CC[C@H](C)[C@H](NC(=O)[C@H](C)NC(=O)CNC(=O)[C@H](Cc1ccccc1)NC(=O)[C@H](CC(N)=O)NC(=O)[C@@H]1CCCN1C(=O)[C@H](CO)NC(=O)[C@H](CO)NC(=O)[C@H](Cc1c[nH]cn1)NC(=O)[C@H](CCCNC(=N)N)NC(=O)[C@H](CC(C)C)NC(=O)[C@H](Cc1ccccc1)NC(=O)[C@H](CCCNC(=N)N)NC(=O)[C@H](C)NC(=O)[C@H](CC(C)C)NC(=O)[C@H](CCCNC(=N)N)NC(=O)[C@H](CCC(N)=O)NC(=O)[C@@H](NC(=O)[C@H](C)NC(=O)[C@@H]1CSSC[C@H](NC(=O)[C@@H](N)CCCCNC(=O)COCCOCCNC(=O)CC[C@H](NC(=O)CCCCCCCCCCCCCCCCCCC(=O)O)C(=O)O)C(=O)N[C@@H](CC(N)=O)C(=O)N[C@@H]([C@@H](C)O)C(=O)N[C@@H](C)C(=O)N[C@@H]([C@@H](C)O)C(=O)N1)[C@@H](C)O)C(=O)N1CCC[C@H]1C(=O)N[C@@H](CO)C(=O)N[C@@H](CO)C(=O)N[C@H](C(=O)N1CCC[C@H]1C(=O)N[C@H](C(=O)NCC(=O)N[C@@H](CO)C(=O)N[C@@H](CC(N)=O)C(=O)N[C@H](C(=O)N[C@@H](Cc1ccc(O)cc1)C(N)=O)[C@@H](C)O)C(C)C)[C@@H](C)O, also called compound 64) | 60.7 | 22.9 | 0.378 |  |  | 
K([γGlu-γGlu-C20 diacid])CNTATCATQRLAHFLRHSSPNFGAIPSSTNVGSNTY-NH2 (disulfide 2-7; N-terminus assumed; SMILES CC[C@H](C)[C@H](NC(=O)[C@H](C)NC(=O)CNC(=O)[C@H](Cc1ccccc1)NC(=O)[C@H](CC(N)=O)NC(=O)[C@@H]1CCCN1C(=O)[C@H](CO)NC(=O)[C@H](CO)NC(=O)[C@H](Cc1c[nH]cn1)NC(=O)[C@H](CCCNC(=N)N)NC(=O)[C@H](CC(C)C)NC(=O)[C@H](Cc1ccccc1)NC(=O)[C@H](Cc1c[nH]cn1)NC(=O)[C@H](C)NC(=O)[C@H](CC(C)C)NC(=O)[C@H](CCCNC(=N)N)NC(=O)[C@H](CCC(N)=O)NC(=O)[C@@H](NC(=O)[C@H](C)NC(=O)[C@@H]1CSSC[C@H](NC(=O)[C@@H](N)CCCCNC(=O)CC[C@H](NC(=O)CC[C@H](NC(=O)CCCCCCCCCCCCCCCCCCC(=O)O)C(=O)O)C(=O)O)C(=O)N[C@@H](CC(N)=O)C(=O)N[C@@H]([C@@H](C)O)C(=O)N[C@@H](C)C(=O)N[C@@H]([C@@H](C)O)C(=O)N1)[C@@H](C)O)C(=O)N1CCC[C@H]1C(=O)N[C@@H](CO)C(=O)N[C@@H](CO)C(=O)N[C@H](C(=O)N[C@@H](CC(N)=O)C(=O)N[C@H](C(=O)NCC(=O)N[C@@H](CO)C(=O)N[C@@H](CC(N)=O)C(=O)N[C@H](C(=O)N[C@@H](Cc1ccc(O)cc1)C(N)=O)[C@@H](C)O)C(C)C)[C@@H](C)O, Analogue of human amylin; disulfide and C-terminal amide as told for h-amylin; also called compound 92) |  |  |  | 104 | 145 | 156
